This assay has as its target FLAG-YAP tagged with a nuclear exclusion sequence (NES) (human) (UniProt P46937). The assay can be described thus: co-IP.

These results are taken from paper PMC7398163.

Regarding “IQGAP1 (from UniProt Q9JKF1 1-1657) (natural protein)”, the fold association relative to WT YAP stood at 2 fold.
